Reference: the supplement of paper PMC9732359
± gives the uncertainty stated by the source.

test: protein stability index of a GFP-peptide fusion (yeast GPS) (PSI 1-4); higher = more stable; sorted into four equal gates, so the index is relative within each strain; conditions: pdr5∆
Procedure, shortened: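 Peptides tiling yeast proteins in 17-residue segments were fused downstream of GFP, with Cherry expressed from the same plasmid. As a pooled library in yeast, mid-log cultures grown in leucine-free medium were sorted into four equal gates by GFP/Cherry fluorescence ratio. Gate plasmids were PCR-amplified and Illumina-sequenced, and barcodes linked reads to strains. Each peptide received a protein stability index equal to the sum of each gate's read frequency times its gate number.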

Row | Sequence | protein stability index
1 | KCPLLVEVDITLSPNVT [GRR1] | 1.83 ± 0.065

same assay, conditions: san1∆

Row | Sequence | protein stability index
2 | ILDLKEFDRRILKKSLM [RTT102] | 3.19 ± 0.099
3 | ILDNINHNGSALLIEVF [ITC1] | 1.14 ± 0.13
4 | ILDNTENYDDTELRQLF [DSN1] | 3.37 ± 0.042
5 | ILDPQVTRFTTWNGSPF [YJL039C/NUP192] | 1.51 ± 0.17
6 | ILDTSQSESRQKRQLHD [SNU114] | 1.72 ± 0.24
7 | ILERAYKKLDIDGKVIQ [SNF2] | 3.05 ± 0.042
8 | ILHGSKSQEQREHSLQL [PRP28] | 2.92 ± 0.067
9 | ILKSLKNRSNRKRFHSQ [YOR098C/NUP1] | 3.03 ± 0.081
10 | ILNLLNILTTHLSHPGT [ECM29] | 1.65 ± 0.05
11 | ILNLYSSAHLIRINDEP [YML103C/NUP188] | 1.8 ± 0.26
12 | ILSGFHNAGPVAGAGAA [RPP1B] | 2.74 ± 0.07
13 | ILSINAIDYEPEYEKAM [SMC1] | 3.05 ± 0.049
14 | ILTKEVQGSTLAQLTSK [RPS1A] | 3.2 ± 0.072
15 | ILVFQVSMKANKYQIKK [RPL25] | 3.09 ± 0.046
16 | ILVKRYSIEMKPYSGKL [ECM29] | 1.79 ± 0.073
17 | IMECCQKNDTAAFKDIA [RRP40] | 2.95 ± 0.084
18 | IMNMIENVEKKEAALKT [SMC2] | 1.67 ± 0.092
19 | INELTLLVQKRFKYAPG [RPS3] | 2.75 ± 0.12
20 | INFERIDEVFSWYLNTF [GRR1] | 2.51 ± 0.1
21 | INFKSREAIRPGHEMED [AAR2] | 3.44 ± 0.058
22 | INIDDLLYELTAFKATV [YJL039C/NUP192] | 2.41 ± 0.054
23 | INKEIFHHWLVEFINKM [SRB8] | 3.03 ± 0.053
24 | INQEKPVKLDENSANST [SIR4] | 3.51 ± 0.18
25 | INQYQLLYNLKNDILTN [SWI1] | 1.28 ± 0.1
26 | INSGLYSVLLESPLSVA [YML103C/NUP188] | 1.15 ± 0.18

Row | Sequence | protein stability index
27 | IPDLSIQNDIYLNDLMI [RPN12] | 2.99 ± 0.044
28 | IPGGPKFEPLYPREEEE [PRP8] | 3.01 ± 0.11
29 | IPKPRTAGKTSVKSART [SNF2] | 2.89 ± 0.065
30 | IPLNRLSLDSDVKFPSN [SMC3] | 2.05 ± 0.11
31 | IPSLANNGNNSTSIQYH [POP6] | 2.47 ± 0.066
32 | IPSSKYAYMMNSQSPRG [YLR018C/POM34] | 2.75 ± 0.044
33 | IPVIALTDLDSPSEFVD [RPS0A] | 2.74 ± 0.096
34 | IQELRKLLKSLLLNYLE [MED7] | 1.12 ± 0.12
35 | IQHVGMINGRKLIKFET [FAS1] | 3.05 ± 0.085
36 | IQKGKFTLLDFKKQMQT [SRP54] | 1.07 ± 0.21
37 | IQSQVFESLYNSNDSVF [BRR2] | 1.59 ± 0.097
38 | IRAGEFDVVLTTFEYII [SNF2] | 2.37 ± 0.11
39 | IRAHQTELTHHLLPRNE [QCR7] | 3.02 ± 0.064
40 | IRALQPKLKEGALHFVQ [YIL149C/MLP2] | 2.17 ± 0.068
41 | IRENKVTYSRVSKKVDV [BRN1] | 2.94 ± 0.081
42 | IRFRIEREVFVDVKPKS [RPC25] | 2.16 ± 0.13
43 | IRITSLQGDLTFTKKCL [SIR4] | 2.81 ± 0.085
44 | IRKFFGLSKEDDVRDFV [RPS6A] | 3.38 ± 0.12
45 | IRKIVRKDENQFSYVDS [AAR2] | 3.03 ± 0.073
46 | IRNARSIRAEAVAASST [POP1] | 2.5 ± 0.14
47 | IRTRRAAELLDKRIVIS [DIS3] | 1.51 ± 0.17
48 | IRVLFKENGQLIGAATK [SEC65] | 2.17 ± 0.12
49 | IRYNSVEIQEVPRTADR [RPC82] | 2.88 ± 0.079
50 | ISDVKIQVAAFIYGMSA [PRP8] | 1.84 ± 0.12
